Measured values reported in US20100015126A1, “Methods of Binding of Cross-Beta Structures By Chaperones” (priority 2006, published 2010).

Legend:
immobilized BiP = target: T1, immobilized BiP (Homo sapiens, UniProt P11021); assay: Depletion of solutions from misfolded proteins using immobilized BiP (ELISA); assay type: binding; details: BiP coated at 5 μg/ml; 1, 10, 100 μg/ml misfolded protein
T1 construct: The human BiP gene except the signal peptide encoding region was obtained from Geneart (Germany); linker […]; made in house; host or cells: HEK 293E cells, transient transfection, PABC674 vector; secreted into the medium
Protocol: We analysed whether recombinant human BiP with a C-terminal FLAG-tag and His-tag can be applied for depleting solutions from misfolded proteins comprising crossbeta structure.
BiP was coated at a concentration of 5 μg/ml at Greiner Microlon high-binding plates, for 1 h at room temperature with motion. As a negative control buffer was coated. ELISAs were performed essentially as described before. […] All binding buffers were PBS/0.1% (v/v) Tween20. Binding of dOVA was assayed using monoclonal anti-chicken egg albumin antibody (Sigma, A6075, 1:10.000 dilution) and RAMPO (Dako Cytomation, P0260, 1:3.000). […] Background signals obtained with buffer coated wells that were subsequently overlayed with protein solutions (see below), were subtracted from signals obtained with wells with coated BiP.

[1] = target: T2, human mitochondrial HSP60 (Homo sapiens, UniProt P10809); assay: ELISA: binding of HSP60 to immobilized (misfolded) protein ligands
T2 construct: Dr. W. van Eden, Utrecht University; host or cells: E. coli
Protocol: Recombinant human HSP60 with N-terminal His-tag was a kind gift of Dr. R. van der Zee and Prof. Dr. W. van Eden (Institute of Infectious Diseases and Immunology, Faculty of Veterinary Medicine, Utrecht University, Utrecht, The Netherlands), and was supplied in lyophilized form. The HSP60 was produced in E. coli and purified using Nickel-Sepharose. The HSP60 was lyophilized from 20-40 mM ammonium-bicarbonate solution, after purification, and stored at −20° C. The construct lacks the mitochondrial signal sequence. […] Before use, the lyophilized protein is dissolved at room temperature at 1 mg/ml in 20-40 mM NH4HCO3, resulting in a pH of 7.0. Aliquots are stored at −20° C. or −80° C. The mitochondrial HSP60 is a functional dimer of heptamers (MW(HSP60 monomer)=˜58 kDa), and is involved in multimer protein assembling and aids in transport of unfolded proteins across membranes. For the binding studies, at two occasions separate HSP60 solutions were prepared originating from the same batch of purified protein, lyophilized in separate Eppendorf cups.
Binding of chaperones to immobilized (misfolded) protein ligands was determined using an enzyme linked immuno sorbent assay (ELISA) approach. […] After 5 washes with wash buffer followed by two washes with PBS, binding of antibodies was assessed. […] Plates were read at 450 nm. […]

T1 sequence (P11021 19-654): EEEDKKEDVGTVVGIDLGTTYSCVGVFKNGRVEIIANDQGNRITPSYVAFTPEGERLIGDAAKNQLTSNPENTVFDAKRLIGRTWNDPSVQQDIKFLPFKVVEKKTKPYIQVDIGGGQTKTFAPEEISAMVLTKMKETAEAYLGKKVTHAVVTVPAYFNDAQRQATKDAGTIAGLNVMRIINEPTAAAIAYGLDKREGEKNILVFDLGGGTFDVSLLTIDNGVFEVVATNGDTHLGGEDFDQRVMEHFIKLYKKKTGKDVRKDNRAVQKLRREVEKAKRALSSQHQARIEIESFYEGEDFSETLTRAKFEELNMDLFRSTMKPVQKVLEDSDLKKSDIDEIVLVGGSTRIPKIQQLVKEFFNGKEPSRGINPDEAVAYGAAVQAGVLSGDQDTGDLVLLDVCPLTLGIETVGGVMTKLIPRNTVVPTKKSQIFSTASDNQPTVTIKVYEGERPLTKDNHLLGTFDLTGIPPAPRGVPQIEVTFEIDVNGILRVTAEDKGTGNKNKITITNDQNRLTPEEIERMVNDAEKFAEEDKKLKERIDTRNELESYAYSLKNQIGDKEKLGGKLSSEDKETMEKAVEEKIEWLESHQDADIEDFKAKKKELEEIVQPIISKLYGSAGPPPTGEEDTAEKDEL
T2 sequence (P10809 27-573): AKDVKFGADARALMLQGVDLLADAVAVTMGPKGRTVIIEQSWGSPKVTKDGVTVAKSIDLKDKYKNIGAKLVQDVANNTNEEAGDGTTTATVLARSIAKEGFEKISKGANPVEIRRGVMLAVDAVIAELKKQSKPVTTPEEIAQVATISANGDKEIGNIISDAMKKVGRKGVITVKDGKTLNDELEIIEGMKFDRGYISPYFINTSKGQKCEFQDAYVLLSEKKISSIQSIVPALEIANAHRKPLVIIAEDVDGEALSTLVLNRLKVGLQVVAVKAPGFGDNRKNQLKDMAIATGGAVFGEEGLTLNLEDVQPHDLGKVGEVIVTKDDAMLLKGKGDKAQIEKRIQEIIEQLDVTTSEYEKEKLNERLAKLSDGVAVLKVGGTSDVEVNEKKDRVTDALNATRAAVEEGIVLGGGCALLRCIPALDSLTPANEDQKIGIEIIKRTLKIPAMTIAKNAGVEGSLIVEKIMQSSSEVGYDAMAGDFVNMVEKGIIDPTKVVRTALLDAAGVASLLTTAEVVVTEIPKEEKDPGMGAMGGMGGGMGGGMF

B1: dOVA standard: heat-denatured chicken ovalbumin (protein)
chain: GSIGAASMEFCFDVFKELKVHHANENIFYCPIAIMSALAMVYLGAKDSTRTQINKVVRFDKLPGFGDSIEAQCGTSVNVHSSLRDILNQITKPNDVYSFSLASRLYAEERYPILPEYLQCVKELYRGGLEPINFQTAADQARELINSWVESQTNGIIRNVLQPSSVDSQTAMVLVNAIVFKGLWEKAFKDEDTQAMPFRVTEQESKPVQMMYQIGLFRVASMASEKMKILELPFASGTMSMLVLLPDEVSGLEQLESIINFEKLTEWTSSNVMEERKIKVYLPRMKMEEKYNLTSVLMAMGITDVFSSSANLSGISSAESLKISQAVHAAHAEINEAGREVVGSAEAGVDAASVSEEFRADHPFLFCIKHIATNAVLFFGRCVSP
B1 was tested, and the “Extraction from solution by immobilized BiP” value (immobilized BiP) was “can be extracted” and the “Binding of concentration series of HSP60 to coated ligand” value [1] was “has been established”.
